Measured values as given in patent US20200323888A1, “INHIBITORS” (VESTLANDETS INNOVASJONSSELSKAP AS, priority 2017, published 2020).
Square brackets hold non-standard residues; d marks the D form. Ends that are not written are not given here. Nle = CCCC[C@H](N)C(=O)O; CoA = coenzyme A

T1: MBP-HishNAA80 fusion protein (MBP-Naa80) (human, UniProt Q93015-2 1-308)
T1 sequence (looked up): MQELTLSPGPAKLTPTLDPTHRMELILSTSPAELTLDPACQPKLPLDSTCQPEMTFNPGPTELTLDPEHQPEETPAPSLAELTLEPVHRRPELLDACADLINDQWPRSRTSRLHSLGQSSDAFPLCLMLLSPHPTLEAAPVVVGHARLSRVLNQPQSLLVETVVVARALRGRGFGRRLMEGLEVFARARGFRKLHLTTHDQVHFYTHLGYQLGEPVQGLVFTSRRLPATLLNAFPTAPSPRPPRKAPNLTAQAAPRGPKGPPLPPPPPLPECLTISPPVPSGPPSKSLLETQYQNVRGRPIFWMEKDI

T2: NatA complex (Naa15-Naa10) (human, UniProt P41227 1-235; Q9BXJ9 1-866)
T2 sequence (looked up) 1: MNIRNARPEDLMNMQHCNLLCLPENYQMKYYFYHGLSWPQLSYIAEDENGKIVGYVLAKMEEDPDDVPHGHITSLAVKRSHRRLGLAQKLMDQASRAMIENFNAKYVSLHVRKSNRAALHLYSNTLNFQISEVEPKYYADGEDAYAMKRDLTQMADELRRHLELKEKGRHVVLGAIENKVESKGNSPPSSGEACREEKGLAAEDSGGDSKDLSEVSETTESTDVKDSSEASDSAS
T2 sequence (looked up) 2: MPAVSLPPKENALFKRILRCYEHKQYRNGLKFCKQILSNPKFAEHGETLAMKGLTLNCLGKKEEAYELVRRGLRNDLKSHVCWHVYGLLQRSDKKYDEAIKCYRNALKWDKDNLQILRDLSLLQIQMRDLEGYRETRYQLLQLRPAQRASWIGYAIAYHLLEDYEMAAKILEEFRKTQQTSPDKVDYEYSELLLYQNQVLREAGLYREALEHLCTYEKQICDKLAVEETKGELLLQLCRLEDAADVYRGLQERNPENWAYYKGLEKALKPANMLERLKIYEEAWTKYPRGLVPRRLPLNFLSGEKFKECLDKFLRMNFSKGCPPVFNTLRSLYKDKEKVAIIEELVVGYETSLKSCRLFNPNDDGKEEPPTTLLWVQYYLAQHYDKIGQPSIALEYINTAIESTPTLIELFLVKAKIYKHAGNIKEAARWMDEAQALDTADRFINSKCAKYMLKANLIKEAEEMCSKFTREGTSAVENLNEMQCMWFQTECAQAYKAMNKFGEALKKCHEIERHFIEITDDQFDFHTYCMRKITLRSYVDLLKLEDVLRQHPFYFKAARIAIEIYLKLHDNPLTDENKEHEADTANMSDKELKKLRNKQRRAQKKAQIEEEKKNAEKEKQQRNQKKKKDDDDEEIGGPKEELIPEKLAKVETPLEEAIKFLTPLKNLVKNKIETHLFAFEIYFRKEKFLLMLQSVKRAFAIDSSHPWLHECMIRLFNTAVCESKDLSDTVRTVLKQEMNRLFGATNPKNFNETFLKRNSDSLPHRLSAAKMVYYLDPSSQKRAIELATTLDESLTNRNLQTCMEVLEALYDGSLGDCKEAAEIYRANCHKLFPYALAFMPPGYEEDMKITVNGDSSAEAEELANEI

B1: MELL24 (peptide)
peptide: MELLSPPRWGRPVGRRRRPVRVYP
B2: MKKS24 (peptide)
peptide: MKKSYSGRWGRPVGRRRRPVRVYP
B3: DDDI24 (peptide)
peptide: DDDIAALRWGRPVGRRRRPVRVYP
B4: AVFA24 (peptide)
peptide: AVFADLDRWGRPVGRRRRPVRVYP
B5: MLGP24 (peptide)
peptide: MLGPEGGRWGRPVGRRRRPVRVYP
B6: SESS24 (peptide)
peptide: SESSSKSRWGRPVGRRRRPVRVYP
B7: EEEI24 (peptide)
peptide: EEEIAALRWGRPVGRRRRPVRVYP
B8: MTNK24 (peptide)
peptide: MTNKSSLRWGRPVGRRRRPVRVYP
B9: MDEL24 (peptide)
peptide: MDELFPLRWGRPVGRRRRPVRVYP
B10: MAPL24 (peptide)
peptide: MAPLDLDRWGRPVGRRRRPVRVYP
B11: QEEI (Naa80 bisubstrate analogue inhibitor) (peptide)
peptide: {CoA-Ac}-QEEI-NH2
B12: DDEI (Naa80 bisubstrate analogue inhibitor) (peptide)
peptide: {CoA-Ac}-DDEI-NH2
B13: EDEI (Naa80 bisubstrate analogue inhibitor) (peptide)
peptide: {CoA-Ac}-EDEI-NH2
B14: EEDL (Naa80 bisubstrate analogue inhibitor) (peptide)
peptide: {CoA-Ac}-EEDL-NH2
B15: EDDI (Naa80 bisubstrate analogue inhibitor) (peptide)
peptide: {CoA-Ac}-EDDI-NH2
B16: EEDI (Naa80 bisubstrate analogue inhibitor) (peptide)
peptide: {CoA-Ac}-EEDI-NH2
B17: EDEL (Naa80 bisubstrate analogue inhibitor) (peptide)
peptide: {CoA-Ac}-EDEL-NH2
B18: CoA-Ac-MDEL-NH2 (peptide)
peptide: {CoA-Ac}-MDEL-NH2
B19: PDEL (Naa80 bisubstrate analogue inhibitor) (peptide)
peptide: {CoA-Ac}-PDEL-NH2
B20: DEEL (Naa80 bisubstrate analogue inhibitor) (peptide)
peptide: {CoA-Ac}-DEEL-NH2
B21: ESEL (Naa80 bisubstrate analogue inhibitor) (peptide)
peptide: {CoA-Ac}-ESEL-NH2
B22: DEEI (Naa80 bisubstrate analogue inhibitor) (peptide)
peptide: {CoA-Ac}-DEEI-NH2
B23: DEDI (Naa80 bisubstrate analogue inhibitor) (peptide)
peptide: {CoA-Ac}-DEDI-NH2
B24: EDQL (Naa80 bisubstrate analogue inhibitor) (peptide)
peptide: {CoA-Ac}-EDQL-NH2
B25: EEEL (Naa80 bisubstrate analogue inhibitor) (peptide)
peptide: {CoA-Ac}-EEEL-NH2
B26: CoA-Ac-EEEI-NH2 (peptide)
peptide: {CoA-Ac}-EEEI-NH2
B27: CoA-Ac-SYAE (peptide)
peptide: {CoA-Ac}-SYAE-NH2
B28: CoA-Ac-SSMPV (peptide)
peptide: {CoA-Ac}-SSMPV-NH2
B29: CoA-Ac-SSME (peptide)
peptide: {CoA-Ac}-SSME-NH2
B30: CoA-Ac-SSAE (peptide)
peptide: {CoA-Ac}-SSAE-NH2
B31: CoA-Ac-SSMP (peptide)
peptide: {CoA-Ac}-SSMP-NH2
B32: CoA-Ac-SSSE (peptide)
peptide: {CoA-Ac}-SSSE-NH2
B33: CoA-Ac-PS(Nle)P (peptide)
peptide: {CoA-Ac}-PS[Nle]P
modifications: not fully specified (C-terminus); printed as CoA-Ac-PS(Nle)P
B34: CoA-Ac-SESS (peptide)
peptide: {CoA-Ac}-SESS-NH2
B35: CoA-Ac-SASE (peptide)
peptide: {CoA-Ac}-SASE-NH2
B36: CoA-Ac-AASE (peptide)
peptide: {CoA-Ac}-AASE-NH2
B37: CoA-Ac-SAAE (peptide)
peptide: {CoA-Ac}-SAAE-NH2
B38: CoA-Ac-SSAA (peptide)
peptide: {CoA-Ac}-SSAA-NH2

target: T1, MBP-HishNAA80 fusion protein (MBP-Naa80); assay: cell-based or functional assay

| Binder | Product formation [µM] |
| --- | --- |
| B1 | 2.15 |
| B2 | 3.37 |
| B3 | 50.5 |
| B4 | -0.96 |
| B5 | 2.06 |
| B6 | 1.14 |
| B7 | 42.4 |
| B8 | -4.25 |
| B9 | 119 |
| B10 | 2.28 |

target: T1, MBP-HishNAA80 fusion protein (MBP-Naa80); assay: cell-based or functional assay; remark: another data set of the same source

| Binder | IC50 (µM), Nt-acetylation inhibition [µM] |
| --- | --- |
| B11 | 2.23 |
| B12 | 2.67 |
| B13 | 0.76 |
| B14 | 1.76 |
| B15 | 0.12 |
| B16 | 0.17 |
| B17 | 0.15 |
| B18 | 1.26 |
| B19 | 13.4 |
| B20 | 4.73 |
| B21 | 11.5 |
| B22 | 1.22 |
| B23 | 3.12 |
| B24 | 0.85 |
| B25 | 1.16 |
| B26 | 1.16 |

target: T2, NatA complex (Naa15-Naa10); assay: cell-based or functional assay

| Binder | IC50 (µM), Nt-acetylation inhibition [µM] |
| --- | --- |
| B27 | 36.2 |
| B28 | 2.1 |
| B29 | 1.28 |
| B30 | 4.7 |
| B31 | 0.82 |
| B32 | 9.47 |
| B33 | > 1000 |
| B34 | 15.4 |
| B35 | 62.4 |
| B36 | 247 |
| B37 | 12.1 |
| B38 | 5.3 |
